Assay results from patent US20040072188A1 (Biogen, published 2004).

Legend:
[1] = target: T1, human TACI, full length, on transfected 293EBNA cells (CA336) (human, UniProt O14836 1-293); test: FACS on 293EBNA cells co-transfected with human TACI and GFP, 1 ug/ml myc-APRIL
T1 construct: whole, on cells; also called huTACI
T1 sequence (looked up): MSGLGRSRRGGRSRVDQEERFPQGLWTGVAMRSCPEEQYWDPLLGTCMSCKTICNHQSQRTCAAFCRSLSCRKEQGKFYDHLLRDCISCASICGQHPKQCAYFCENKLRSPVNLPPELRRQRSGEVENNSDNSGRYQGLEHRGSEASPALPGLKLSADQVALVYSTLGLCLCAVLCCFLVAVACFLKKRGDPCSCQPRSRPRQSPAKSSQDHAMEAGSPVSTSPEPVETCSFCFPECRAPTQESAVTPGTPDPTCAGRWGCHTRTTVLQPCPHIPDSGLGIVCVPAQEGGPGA
Source text: (§1) At 18-20 hr post-transfection, cells were detached, counted, and stained for FACS analysis similar to Example 5 with the following modifications. […] The cells were again washed, fixed with paraformaldehyde, and analyzed by FACS for GFP and PE positive cells.

[2] = target: T2, human BAFF-R (JST576), full length, on cells (human, UniProt Q96RJ3 1-184); test: FACS on 293EBNA cells co-transfected with pJST576 and GFP reporter; anti-murine APRIL mAb, biotinylated anti-rat IgG2b, SAV-PE
T2 construct: also called pJST576 transfected cells; huBAFF-R
T2 sequence: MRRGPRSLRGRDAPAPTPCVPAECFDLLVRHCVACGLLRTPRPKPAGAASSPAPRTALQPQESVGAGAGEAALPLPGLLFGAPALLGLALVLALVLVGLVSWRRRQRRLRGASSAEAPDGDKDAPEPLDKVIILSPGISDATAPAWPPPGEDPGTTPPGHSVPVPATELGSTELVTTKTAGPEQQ
Source text: as §1

binding result [1]: binds
binding result [2]: no binding (tested: 1 ug/ml)
B1: murine recombinant soluble myc-APRIL (ligand, UniProt Q9D777 96-241, looked up)
chain: AVLTQKHKKKHSVLHLVPVNITSKADSDVTEVMWQPVLRRGRGLEAQGDIVRVWDTGIYLLYSQVLFHDVTFTMGQVVSREGQGRRETLFRCIRSMPSDPDRAYNSCYSAGVFHLHQGDIITVKIPRANAKLSLSPHGTFLGFVKL
notes: also called myc-muAPRIL; murine myc-APRIL; not shown: myc tag
